Source: PMC2940942 (Journal of Molecular Biology, 2009)
Where two headings read alike, the source gives them in different places.

How the values were obtained:
[1] = biological target: T1, cyclophilin A (UniProt P62937 1-165); assay: NMR titration
[2] = biological target: T1, cyclophilin A; assay: NMR titration; remark: listed apart in the source
[3] = biological target: the molecule itself; assay: SEC

B1: CD147^22–214 (domain or fragment)
chain: AAGTVFTTVEDLGSKILLTCSLNDSATEVTGHRWLKGGVVLKEDALPGQKTEFKVDSDDQWGEYSCVFLPEPMGTANIQLHGPPRVKAVKSSEHINEGETAMLVCKSESVPPVTDWAWYKITDSEDKALMNGSESRFFVSSSQGRSELHIENLNMEADPGQYRCNGTSSKGSDQAIITLRVRSHLAALWPFLG
Kd [1]: > 1 mM

GSHLAALWPFLG [CD147^10mer peptide (CD147 residues 205–214)]
Kd [2]: 4.2 ± 0.2 mM

B2: CD147^22–269 (isoform 2 without the signal peptide) (receptor)
chain: AAGTVFTTVEDLGSKILLTCSLNDSATEVTGHRWLKGGVVLKEDALPGQKTEFKVDSDDQWGEYSCVFLPEPMGTANIQLHGPPRVKAVKSSEHINEGETAMLVCKSESVPPVTDWAWYKITDSEDKALMNGSESRFFVSSSQGRSELHIENLNMEADPGQYRCNGTSSKGSDQAIITLRVRSHLAALWPFLGIVAEVLVLVTIIFIYEKRRKPEDVLDDDDAGSAPLKSSGQHQNDKGKNVRQRNSS
binding result [3]: binds
